Data on 6 sequences can be found in the supplement of paper PMC12455559.

The nature of series [1]: purified protein yield per well (BCA); higher = higher soluble expression. The essentials:
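The measured quantity is purified protein yield per well, determined with the Pierce Rapid Gold BCA kit. Anything below 25 ug (0.1 mg/mL) lies under the detection threshold. Enzymes were expressed in E. coli C41(DE3) in 2 mL autoinduction cultures with 100 µg/mL kanamycin at 37 °C for 2 h, then 18 °C for 40 h, and purified on an OT-2 robot using Ni-charged magnetic beads and SUMO protease release.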

Series [2] can be described thus: melting temperature (DSF); higher = more thermostable. Put shortly:
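Values are melting temperatures from differential scanning fluorimetry. Candidate enzymes were expressed in E. coli C41(DE3), purified on nickel beads and freed by SUMO protease cleavage. In sealed PCR plates on a Bio-Rad CFX96, 45 μL enzyme (0 to 0.3 mg/mL) was combined with 5 μL 5X Sypro Orange. Fluorescence was recorded from 25 °C for 250 cycles, rising 0.3 °C per cycle at a ramp of 0.3 °C/s.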

Series [3] can be described thus: PET hydrolysis, aromatic products released after 48 h (umol product/mg enzyme); higher = more PET depolymerization activity. The essentials: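 Amorphous PET film or crystalline PET powder (3.5 mg) in 450 μL of 50 mM NaCitrate (pH 4.5, 5.5), 50 mM NaPhosphate (pH 6.5, 7.5) or glycine (pH 8.5) received 5 μg (50 μL) of candidate enzyme. That enzyme was purified on nickel beads and freed of its tag by SUMO cleavage. After 48 h at 40 or 60 °C in sealed plates without shaking, absorbance of the supernatant at 260 and 280 nm was read against buffer blanks. PET hydrolysis activity is this aromatic product expressed per mg enzyme.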

Where [4] appears, read: substrate: cryPow, 40 °C, pH 4.5.
The mark [5] stands for this setting: substrate: cryPow, 40 °C, pH 5.5.
Where [6] appears, read: substrate: cryPow, 40 °C, pH 6.5.
[7] abbreviates: substrate: cryPow, 40 °C, pH 7.5.
[8] abbreviates: substrate: cryPow, 60 °C, pH 4.5.
Where [9] appears, read: substrate: cryPow, 60 °C, pH 5.5.
Where [10] appears, read: substrate: cryPow, 60 °C, pH 6.5.
Where [11] appears, read: substrate: cryPow, 60 °C, pH 7.5.

A value given as a limit tells only on which side of the number the result lay.

Consider “DEIGQAPTASNITGNGSFATTSASISSTVAGFGGGRVYYPTATGTYPVIAISPGFTATWSSLSWIGPRLSSWGFVVVGIETNSIYDQPGSRGSQLLAALNWAVSSSPTAVRSRVDGSRRGVAGHSMGGGGTLEALAADTSGLVKAGVPLAPWNSDKTWNNVSEPVLIVGGQSDTIAPVSSHSVPFYNTLAGPKTYVELTGASHFFPQSSNATTSRALVSWFKRWLNQDSRFTPFTCGFSGAAVSSFRTNAC [ESM093]”, for which, in series [1], the “purified protein yield per well” value is 93.2 µg. In addition, in series [2], the melting temperature was found to be 65.2 C. In addition, the PET hydrolysis in series [3] (setting [4]) was under 3; in series [3] (setting [5]), 25; in series [3] (setting [6]) it was 44; in series [3] (setting [7]), 72; in series [3] (setting [8]), under 3; in series [3] (setting [9]), 7. The PET hydrolysis was 23 in series [3] (setting [10]) and 39 in series [3] (setting [11]).

Regarding “EEPASGYQRGPAPTTSSIESSRGPFSTSQVSISGLSANGFGGADVYYPTDTSQGTFGAVAISPGYTARKSSMAWLASRLASQGFVVINIDTNTTSDQPASRGRQLLAALDQVTKDSRVANRIDPTRLAVVGHSMGGGGALEASRSRPSLQAAIPLTPWNTTKSFSGNQVPTLVVGAERDTVASVRSHAEPFYRSLPSAPGKAYLELAGASHFAPNTSNTTIAKHSIAWLKLFVDNDERYRQFVCPGPTSDRAVSDYQNTCSSFTP [DP053]”, the “purified protein yield per well” value in series [1] came out at 235 µg. This sequence had a melting temperature in series [2] of 42.7 C. Moreover, the PET hydrolysis in series [3] (substrate: aFilm, 40 °C, pH 5.5) was under 3; in series [3] (substrate: aFilm, 40 °C, pH 6.5) it was under 3; in series [3] (substrate: aFilm, 40 °C, pH 7.5), under 3; in series [3] (substrate: aFilm, 40 °C, pH 8.5), under 3; in series [3] (substrate: aFilm, 60 °C, pH 5.5), under 3; in series [3] (substrate: aFilm, 60 °C, pH 6.5), under 3. Moreover, the PET hydrolysis in series [3] (substrate: aFilm, 60 °C, pH 7.5) is under 3; in series [3] (substrate: aFilm, 60 °C, pH 8.5) it was under 3; in series [3] (setting [5]), under 3; in series [3] (setting [6]), under 3; in series [3] (setting [7]), under 3; in series [3] (substrate: cryPow, 40 °C, pH 8.5), under 3. The PET hydrolysis was under 3 in series [3] (setting [9]); under 3 in series [3] (setting [10]); under 3 in series [3] (setting [11]); under 3 in series [3] (substrate: cryPow, 60 °C, pH 8.5).

With “ENAIINGTYSLIVTQSGKALDTSQWGTIDGTNITLNDYWGGESQKFIITPVDGIWHRITPVIAPDQAFDVSKCSPNVGANIQTWSYEGGACQQFRFAETGNGTYQIITRGTDMSLNVNNLSEENDTNVMQSTSTGKENQIFTLRRHAESHISGNCPDGAICRDEEAPGLYDGKGPYNVRSYELPGAYVTLPATARVYYPANAEPPYSGIVFCPPFMTKQIAFAAWGPWFASHGMVLVTMDTTTIFDQVTARDNQQWRVVKALRRENTRLGSPLRGKLDTDKIGIMGWSMGGGASWINAGKHRDELKTVISLAGHNMTAWYNTDIYSWYSPEELLDAAYASGRLIKIPALIINGALDTTILGGLGQSDGVYRSISNTPKVLAVLGLAGHFAWGYPTQAGRGVASLVLAFEKTFLDGDTRWAPYIQKPSAPMRKWRTADLP [TEP050]”, the “purified protein yield per well” value in series [1] was 60.6 µg. The melting temperature in series [2] came to 46.3 C. Besides, the PET hydrolysis in series [3] (setting [4]), in series [3] (setting [5]), in series [3] (setting [6]), in series [3] (setting [7]), in series [3] (setting [8]) and in series [3] (setting [9]) was under 3 throughout. The PET hydrolysis in series [3] (setting [10]) and in series [3] (setting [11]) was under 3 in each case.

As for “DEIGQAPTSSNITGNGSFSVSTYNISSLVTGFGGGVAYYPSTAGRYPVVAVSPGFTARWSSISWIGPRLASWGFVVVGIETNSVYDQPASRGSQLLAALNWAVNSAPSAITSRADGSRRGVAGHSMGGGGTLEALAADTTGNVKAGVPLAPWNSDKTWNNVNEPVQIIGGESDTVAGVSSHSIPFYNSLGGSKSYVELNGASHFFPQTTNATTSRALVSWFKRWLNQDARFTPFTCGYGGTAVSDFRTNAC [ESM177]”, the “purified protein yield per well” value in series [1] was determined as 71.4 µg. In series [2], this sequence displayed a melting temperature of 54.4 C. Besides, the PET hydrolysis in series [3] (setting [4]) was under 3; in series [3] (setting [5]) it was under 3; in series [3] (setting [6]), 13; in series [3] (setting [7]), 42; in series [3] (setting [8]), under 3; in series [3] (setting [9]) it was under 3. For the same sequence, the PET hydrolysis in series [3] (setting [10]) was under 3; in series [3] (setting [11]) it was 7.

Turning to “ADNPHQRGPNPTQASVAASRGTFATSETSVGGGNGFGGAKIYYPTDTSQGKFAALAVSPGYTATWAAEGAWMGHWLASFGFVIIGIDTISRTDWDVARGDQLLAALDYLTQRSSVRDRVDASRVGVMGHSMGGGGAISAGLKRPSLKVVIGNAPYSASQNLTNMRVPVALLAGQRDTTVTPATTNSYYNQVPATTEKMYLELTNAPHSFPTSNNSVMTRKVIPWMKIFLDQDTRYQQFLCPLLDNTGIRTYRSSCPLIGDPMPPADTYRLAGAASGKCADVEGRSQANGAKLLLWTCNGQTNQRWTQTATGELRVYDNPKCVEAGTSAQGTRVTINACNGGNSQKWTVNANGTVTNAVSGRCLDAAGTADNSPIVVNTCTGAGSQNWSKRS [TEP049]”, the “purified protein yield per well” value in series [1] is 68.7 µg. The melting temperature in series [2] was determined as 50.8 C. Also, the PET hydrolysis in series [3] (setting [4]), in series [3] (setting [5]), in series [3] (setting [6]), in series [3] (setting [7]), in series [3] (setting [8]) and in series [3] (setting [9]) was under 3 each time. Further, the PET hydrolysis in series [3] (setting [10]) and in series [3] (setting [11]) was under 3 each time.

In the case of “MAGAAGWPSTASAADNPYQRGPAPTAASIAADRGPFATAQVTVPRGNGFGGGVIYYPTDTSQGTFGAIAIAPGFSTAWSYYAWQGPRLASFGFVVIGIETNTLNDYADARAAQLLAALDYLVNSSSVRDRVDRNRLAVGGHSMGGGGAILAANQRPSLLTAVGQAPYVPDGSLSGIKSPTIIFAGQTDGTVTPQYAQNAYNTIPGSVERAYVEIANEGHGFPAGGGGGNSGAFARTMMIWLKLFVDKDTRYAPFLCPALTNANGISKYMASCPLDPPGGGPTASPTSTPTSTPTSTPTGSPPTGSTSSLRGVASGRCLDVNGASQSNGATVLIWDCNGQSNQKWTSTSASELRVYGGKCLDVNGGGTADGTAVIIWDCNGQNNQKWRFNSDSSITAVGANKCLDVSANGTANGTRVQIWSCTGGGNQKWTRV [ESM024]”, the “purified protein yield per well” value in series [1] came to 86.8 µg. In series [2], this sequence returned a melting temperature of 62.8 C. Further, the PET hydrolysis was under 3 in series [3] (setting [4]), under 3 in series [3] (setting [5]), 3 in series [3] (setting [6]) and 4 in series [3] (setting [7]).
